Laboratory results: US7455978

Each substance was assayed against ω-fragment of β-galactosidase [β-galactosidase: P00722] (assay: cell-based or functional assay).

Sequence of MJ1267 (LivF)/α-fragment fusion protein (Q58663 1-257, tags or fused parts left off): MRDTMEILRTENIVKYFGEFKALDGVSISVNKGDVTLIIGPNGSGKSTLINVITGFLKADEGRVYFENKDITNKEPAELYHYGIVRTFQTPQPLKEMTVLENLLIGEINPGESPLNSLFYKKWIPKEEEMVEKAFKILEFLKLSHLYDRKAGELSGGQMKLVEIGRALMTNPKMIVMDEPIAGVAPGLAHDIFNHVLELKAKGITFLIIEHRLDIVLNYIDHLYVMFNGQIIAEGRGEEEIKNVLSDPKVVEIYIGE

“MBP wild-type/α-fragment fusion protein (from UniProt P0AEX9 27-392; P00722 7-58)” was tested. Which β-gal Activity (units/cell), ONPG hydrolysis in cell lysates did it give?
The β-gal Activity (units/cell), ONPG hydrolysis in cell lysates was 102 units/cell.

“CFTR NBD1-D/α-fragment fusion protein (from UniProt P13569 419-655; P00722 7-58)” was tested. Which β-gal Activity (units/cell), ONPG hydrolysis in cell lysates did it give?
The β-gal Activity (units/cell), ONPG hydrolysis in cell lysates was 6 units/cell.

With “GST/α-fragment fusion protein (from UniProt P08515 1-218; P00722 7-58)” as the substance, how does the β-gal Activity (units/cell), ONPG hydrolysis in cell lysates read?
The β-gal Activity (units/cell), ONPG hydrolysis in cell lysates was 134 units/cell.

For “MBP I33P/α-fragment fusion protein (from UniProt P0AEX9 27-392; P00722 7-58)”, which β-gal Activity (units/cell), ONPG hydrolysis in cell lysates is on record?
Its β-gal Activity (units/cell), ONPG hydrolysis in cell lysates is 46 units/cell.

Which β-gal Activity (units/cell), ONPG hydrolysis in cell lysates does the source give for “MJ1267 (LivF)/α-fragment fusion protein (from UniProt Q58663 1-257; P00722 7-58)” here?
Its β-gal Activity (units/cell), ONPG hydrolysis in cell lysates is 12 units/cell.

How did the β-gal Activity (units/cell), ONPG hydrolysis in cell lysates turn out when “MBP G32D/I33P/α-fragment fusion protein (from UniProt P0AEX9 27-392; P00722 7-58)” was run?
Its β-gal Activity (units/cell), ONPG hydrolysis in cell lysates is 14 units/cell.

With “Aβ (1-42) F19P/α-fragment fusion protein (from UniProt P05067 672-713; P00722 7-58)” as the substance, how does the β-gal activity, against the wild-type Aβ/α fusion read?
Its β-gal activity, against the wild-type Aβ/α fusion is 3 fold.

Which β-gal Activity (units/cell), ONPG hydrolysis in cell lysates does the source give for “TRx/α-fragment fusion protein (from UniProt P0AA25 1-109; P00722 7-58)” here?
The β-gal Activity (units/cell), ONPG hydrolysis in cell lysates was 159 units/cell.

How did the β-gal Activity (units/cell), ONPG hydrolysis in cell lysates turn out when “MBP G32D/α-fragment fusion protein (from UniProt P0AEX9 27-392; P00722 7-58)” was run?
The β-gal Activity (units/cell), ONPG hydrolysis in cell lysates was 94 units/cell.

With “CFTR NBD1-B/α-fragment fusion protein (from UniProt P13569 404-644; P00722 7-58)” as the substance, how does the β-gal Activity (units/cell), ONPG hydrolysis in cell lysates read?
The β-gal Activity (units/cell), ONPG hydrolysis in cell lysates was 5 units/cell.
